The values that follow come from publication PMC2917178 (Biochemistry, 2010).

This assay addresses H3-H4 (Xenopus laevis, UniProt P84233 1-136; P62799 1-103). Nature of the assay: SEC. On the technique in general: SEC sorts molecules by how far they enter the pores of the column.

B1: co-purified Rtt109-Vps75 complex (complex)
chain 1: MSLNDFLSSVLPVSEQFEYLSLQSIPLETHAVVTPNKDDKRVPKSTIKTQHFFSLFHQGKVFFSLEVYVYVTLWDEADAERLIFVSKADTNGYCNTRVSVRDITKIILEFILSIDPNYYLQKVKPAIRSYKKISPELISAASTPARTLRILARRLKQSGSTVLKEIESPRFQQDLYLSFTCPREILTKICLFTRPASQYLFPDSSKNSKKHILNGEELMKWWGFILDRLLIECFQNDTQAKLRIPGEDPARVRSYLRGMKYPLWQVGDIFTSKENSLAVYNIPLFPDDPKARFIHQLAEEDRLLKVSLSSFWIELQERQEFKLSVTSSVMGISGYSLATPSLFPSSADVIVPKSRKQFRAIKKYITGEEYDTEEGAIEAFTNIRDFLLLRMATNLQSLTGKREHRERNQPVPASNINTLAITMLKPRKKAKALPKT
chain 2: MMSDQENENEHAKAFLGLAKCEEEVDAIEREVELYRLNKMKPVYEKRDAYIDEIAEFWKIVLSQHVSFANYIRASDFKYIDTIDKIKVEWLALESEMYDTRDFSITFHFHGIEGDFKEQQVTKVFQIKKGKDDQEDGILTSEPVPIEWPQSYDSINPDLIKDKRSPEGKKKYRQGMKTIFGWFRWTGLKPGKEFPHGDSLASLFSEEIYPFCVKYYAEAQRDLEDEEGESGLSADGDSEDDDGSLGEVDLPLSDEEPSSKKRKV
modifications: acetyl-lysine at K290 (wildtype Rtt109 used is fully acetylated at K290, unpublished data)
B1: the binding result is “binds”.
